From patent US20040138119 come the findings set out here.

For data set [1], the target named is combination of His6-HBXIP and Survivin.
The target in data set [2] is purified recombinant Survivin (untagged).

B1: His6-pro-Caspase-9 (protein)
chain: HHHHHHMDEADRRLLRRCRLRLVEELQVDQLWDALLSRELFRPHMIEDIQRAGSGSRRDQARQLIIDLETRGSQALPLFISCLEDTGQDMLASFLRTNRQAAKLSKPTLENLTPVVLRPEIRKPEVLRPETPRPVDIGSGGFGDVGALESLRGNADLAYILSMEPCGHCLIINNVNFCRESGLRTRTGSNIDCEKLRRRFSSLHFMVEVKGDLTAKKMVLALLELAQQDHGALDCCVVVILSHGCQASHLQFPGAVYGTDGCPVSVEKIVNIFNGTSCPSLGGKPKLFFIQACGGEQKDHGFEVASTSPEDESPGSNPEPDATPFQEGLRTFDQLDAISSLPTPSDIFVSYSTFPGFVSWRDPKSGSWYVETLDDIFEQWAHSEDLQSLLLRVANAVSVKGIYKQMPGCFNFLRKKLFFKTS
For the protein B1, the “Caspase-9 activity (cleavage of Ac-LEHD-AFC) and pro-Caspase-9 processing after Apaf1, Cytochrome C and dATP” value in data set [1] was “the combination of Survivin and HBXIP effectively suppressed generation of Caspase-9 protease activity”; with His6-HBXIP, “Addition of either recombinant purified Survivin or HBXIP individually was ineffective at blocking Apaf1-mediated activation and proteolytic processing of pro-Caspase-9 in vitro”; in data set [2] it was “Addition of either recombinant purified Survivin or HBXIP individually was ineffective at blocking Apaf1-mediated activation and proteolytic processing of pro-Caspase-9 in vitro”.

B2: recombinant active Caspase-3 (protein)
chain: SGISLDNSYKMDYPEMGLCIIINNKNFHKSTGMTSRSGTDVDAANLRETFRNLKYEVRNKNDLTREEIVELMRDVSKEDHSKRSSFVCVLLSHGEEGIIFGTNGPVDLKKITNFFRGDRCRSLTGKPKLFIIQACRGTELDCGIETDSGVDDDMACHKIPVEADFLYAYSTAPGYYSWRNSKDGSWFIQSLCAMLKQYADKLEFMHILTRVNRKVATEFESFSFDATFHAKKQIPCIVSMLTKELYFYH
For B2, the “Caspase-3 protease activity, hydrolysis of Ac-DEVD-AFC” value in data set [2] is reported as “Even at a 1000-fold molar excess of Survivin relative to active Caspase-3, essentially no inhibition was observed”.
